US20170101470A1 (PROTHENA BIOSCIENCES, published 2017)

B1: rat anti-human MCAM monoclonal antibody clone 2107.4.10 (antibody, V domains shown)
VH: QVQLKESGPGLVQSSQTLSLTCTVSGFSLTSNGVSWVRQPPGKGLEWIAAISSGGSTYYNSAFKSRLSISRNTSKSQVLLKMNSLQTEDTGMYFCARHRPFYFDYWGQGVMVTVSS
VL: DIQVTQSPSLLSASVGDRVTLNCKGSQNIYKSLAWFRLKRGEAPKLLIYDANSLQTGIPSRFSGSGSGTDFTLTITSLQPEDVATYFCQQYYSGYTFGAGTKLELK
notes: Rat hybridoma antibody
B2: mouse anti-human MCAM monoclonal antibody clone 1414.1.2 (antibody, V domains shown)
VH: EIQLQQTGPELVKPGASVKISCKASGYSFTDYIMLWVKQSHGKSLEWIGNINPYSGSSGYNLKFKGKATLTVDKSSSTAYMQLNSLTSEDSAVYYCARGKDFAMDYWGQGTSVTVSS
VL: DIVMSQSPSSLAVSAGEKVTMSCKSSQSLLNSSTRKNFLAWYQQKPGQSPKLLIYWASTRESGVPDRFTGSGSGTDFTLTISSVQAEDLAVYYCKQSYNRYTFGGGTKLEIK
notes: Mouse hybridoma antibody
B3: mouse anti-human MCAM monoclonal antibody clone 1174.1.3 (antibody, V domains shown)
VH: QIQLVQSGPELKKPGETVKISCKASGYTFTNYGMNWVKQAPGKGLKWMGWINTYTGEPTYADDFKGRFALSLETSASTAYLQINNLKNEDMATYFCARYRYNKYERAMDYWGQGTSVTVSS
VL: DIVLTQSPASLAVSLGQRATISCRASKSVSTSGYSYMYWYQQKPGQPPKLLIYLASNLESGVPARFSGSGSGTDFTLNIHPVEEEDAATYYCQHSRELPFTFGSGTKLEIK
notes: Mouse hybridoma antibody

Legend:
[1] = biological target: T1, human MCAM domain 1 hFc construct (human, UniProt P43121 19-129); test: ForteBio Octet Red, MCAMhFc domains on anti-human IgG Fc sensors
T1 construct: One of the 'various MCAMhFc domains' loaded on the ForteBio sensors; also called MCAMhFc domain 1
T1 sequence: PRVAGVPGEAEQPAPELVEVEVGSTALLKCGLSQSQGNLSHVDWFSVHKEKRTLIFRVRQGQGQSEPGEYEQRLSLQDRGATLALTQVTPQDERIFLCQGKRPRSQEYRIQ
Source text: (§1) The following protocol was used: ForteBio anti-human IgG Fc biosensors were used to immobilize various MCAMhFc domains including full length MCAMhFc protein on to biosensor surface. […] After loading these samples into a black 96 well plate, the Octet Red was programmed as follows: 60 seconds for baseline #1; 180 seconds for loading various domains; 60 seconds for baseline #2; 180 seconds for association of antibody to domain; and 240 seconds for dissociation of antibody from domain.
(§2) Reagents and Supplies Used: [0358] 1. MCAMhFc final concentration @ 5 ug/ml [0359] […] 3. ForteBio anti-human IgG Fc Capture (AHC) biosensors for kinetics experiments, cat#18-5060 [0361] 4. Block 96 well plate from Greiner Bio-one, cat#655209 [0362] 5. ForteBio Octet Red machine [0363] 6. Fresh tissue culture medium, DMEM with 20% FCS, was used as buffer for dilution

[2] = biological target: T2, human MCAM expressed on CHO cells (full length human MCAM gene) (human, UniProt P43121 24-646); test: flow cytometry: blocking of recombinant human laminin 411 (20 ug/ml) binding to CHO cells expressing human MCAM
T2 construct: also called hMCAM expressing CHO cells; CD146
T2 chain: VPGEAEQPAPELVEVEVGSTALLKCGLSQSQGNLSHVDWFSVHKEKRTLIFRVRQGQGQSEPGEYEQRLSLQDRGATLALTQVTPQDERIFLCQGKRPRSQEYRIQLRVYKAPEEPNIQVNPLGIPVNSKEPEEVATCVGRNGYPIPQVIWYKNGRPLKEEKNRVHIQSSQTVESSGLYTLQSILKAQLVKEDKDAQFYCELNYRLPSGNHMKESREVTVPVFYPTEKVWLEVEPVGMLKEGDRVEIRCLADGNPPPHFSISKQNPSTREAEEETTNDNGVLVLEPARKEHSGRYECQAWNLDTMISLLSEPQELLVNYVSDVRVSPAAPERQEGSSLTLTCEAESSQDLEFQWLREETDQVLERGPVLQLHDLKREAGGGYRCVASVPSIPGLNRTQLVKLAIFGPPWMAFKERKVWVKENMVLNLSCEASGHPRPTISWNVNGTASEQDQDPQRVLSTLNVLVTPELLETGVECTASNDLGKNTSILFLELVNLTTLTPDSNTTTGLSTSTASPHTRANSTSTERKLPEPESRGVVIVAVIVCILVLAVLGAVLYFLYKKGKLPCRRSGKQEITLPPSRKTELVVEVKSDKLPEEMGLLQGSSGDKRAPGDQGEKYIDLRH
Experimental: The 87 independent mouse fusion clones and 26 independent rat fusion clones described in Example 1 above as being capable of (i) binding to human MCAM, and (ii) blocking the interaction between human MCAM and the α-4 chain of laminin were further characterized as follows. First, IC50 quantitation for the ability of the monoclonal antibody to block the binding of human MCAM to the α-4 chain of laminin was determined as follows. CHO cells expressing human MCAM were incubated with an anti-human MCAM antibody (at various concentrations) for 30 minutes at 4 degrees Celsius. […] Unbound laminin was then washed away, and the laminin bound to the surface of the cells was detected with fluorescently labeled anti-laminin antibodies. After washing, the amount of laminin bound to the surface was detected by flow cytometry, and IC50s were calculated based on the mean fluorescent intensity.
Amino acid and nucleic acid sequences of the heavy and light chains of these antibodies, and their hypervariable regions, are provided in SEQ ID NOs:29-92. […] As such, each of these specific monoclonal antibodies was very capable of binding to human MCAM and inhibiting the interaction of cell-expressed human MCAM with its α-4 laminin binding ligand.

[3] = biological target: T3, human MCAM domains 1 and 2 hFc construct (human, UniProt P43121 19-242); test: ForteBio Octet Red, MCAMhFc domains on anti-human IgG Fc sensors
T3 construct: One of the 'various MCAMhFc domains' loaded on the ForteBio sensors
T3 sequence: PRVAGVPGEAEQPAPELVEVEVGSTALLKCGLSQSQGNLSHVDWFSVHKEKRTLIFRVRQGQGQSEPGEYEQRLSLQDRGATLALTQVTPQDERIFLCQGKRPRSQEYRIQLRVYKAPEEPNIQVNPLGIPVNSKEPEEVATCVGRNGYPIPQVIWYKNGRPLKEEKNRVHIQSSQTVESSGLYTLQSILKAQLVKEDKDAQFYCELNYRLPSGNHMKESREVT
Source text: as §1, §2

[4] = biological target: T4, human MCAM domain 2 hFc construct (human, UniProt P43121 139-242); test: as above
T4 construct: One of the 'various MCAMhFc domains' loaded on the ForteBio sensors; also called MCAMhFc domain 2
T4 sequence: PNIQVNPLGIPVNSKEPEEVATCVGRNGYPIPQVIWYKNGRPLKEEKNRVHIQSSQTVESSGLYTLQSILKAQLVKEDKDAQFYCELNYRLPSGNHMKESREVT
Source text: as §1, §2

[5] = biological target: T5, human MCAM-Fc protein (extracellular domain of human MCAM fused to human IgG) (human, UniProt P43121 24-559); test: summary sentence of Example 3 (ForteBio, MCAMhFc)
T5 construct: also called hMCAM-Fc; MCAMhFc
T5 chain: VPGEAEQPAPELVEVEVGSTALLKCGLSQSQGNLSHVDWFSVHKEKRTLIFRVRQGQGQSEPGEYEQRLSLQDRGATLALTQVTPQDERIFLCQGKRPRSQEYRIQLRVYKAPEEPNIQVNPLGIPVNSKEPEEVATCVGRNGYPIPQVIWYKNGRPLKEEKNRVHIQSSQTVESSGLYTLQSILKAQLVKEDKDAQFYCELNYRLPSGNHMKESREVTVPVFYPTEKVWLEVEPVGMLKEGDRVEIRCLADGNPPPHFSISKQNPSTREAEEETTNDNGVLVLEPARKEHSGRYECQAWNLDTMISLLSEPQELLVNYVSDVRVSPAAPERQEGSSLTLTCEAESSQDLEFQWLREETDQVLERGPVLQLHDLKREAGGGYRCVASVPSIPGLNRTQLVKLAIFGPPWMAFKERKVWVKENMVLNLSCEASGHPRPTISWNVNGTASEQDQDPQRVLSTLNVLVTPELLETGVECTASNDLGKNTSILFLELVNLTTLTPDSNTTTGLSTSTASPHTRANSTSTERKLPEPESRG
Source text: as §1, §2

[6] = biological target: T6, human MCAM domain 3 hFc construct (human, UniProt P43121 244-321); test: ForteBio Octet Red, MCAMhFc domains on anti-human IgG Fc sensors, antibody at 5 ug/ml
T6 construct: One of the 'various MCAMhFc domains' loaded on the ForteBio sensors; also called MCAMhFc domain 3
T6 sequence: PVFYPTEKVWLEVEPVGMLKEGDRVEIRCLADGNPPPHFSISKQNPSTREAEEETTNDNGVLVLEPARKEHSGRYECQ
Source text: as §1, §2

Binder | binding result [1] | IC50 [2] | binding result [3] | binding result [4] | binding result [5] | binding result [6]
B1 | no binding (tested: 5 ug/ml) | 0.29 µg/mL | – | – | – | –
B2 | no binding (tested: 5 ug/ml) | 0.431 µg/mL | no binding (tested: 5 ug/ml) | no binding (tested: 5 ug/ml) | binds | binds
B3 | no binding (tested: 5 ug/ml) | 0.469 µg/mL | no binding (tested: 5 ug/ml) | no binding (tested: 5 ug/ml) | binds | binds
